# Data from patent US20160228506A1, “Compositions and Formulations for Prevention and Reduction of Tumorigenesis, Cancer Cell Proliferation and Invasion, and Methods of Production and Use Thereof in Cancer Treatment” (PRONUTRIA, INC., priority 2013, published 2016).
# B1: SEQID-00633: protein of the 168 nutritive polypeptide library (protein, listed as Saccharomyces cerevisiae)
# chain: MSDAGRKGFGEKASEALKPDSQKSYAEQGKEYITDKADKVAGKVQPEDNKGVFQGVHDSAEKGKDNAEGQGESLADQARDYMGAAKSKLNDAVEYVSGRVHGEEDPTKK
# modifications: source: /note="strain ATCC 204508 / S288c"
# notes: protein of the 168 nutritive polypeptide library
# B2: SEQID-00613: protein of the 168 nutritive polypeptide library (protein)
# chain: MGLFDRIGRVVRANLNDLVNKAEDPEKILEQAVIEMQEDLIQLRQAVAQTIAQQKRSQQQYNQAQSQANQWQSRAQLALQKGDENLAREALQRKKGYLETANTLEISLRQQTEQVETLKRNLVSLESKISEAKTKKNMLKARAQAAKANEQLNNVLGGINTSSATSVFERMEEKVMIQEAKSQAAAELMGSGLEEQFRALEEGSDVDDELAAMKAQLAGAPANQPQLSPSAPTDSSTSNPEIDNELEELRRELNK
# modifications: Arthrospira platensis C1
# notes: as for B1
# B3: SEQID-00617: protein of the 168 nutritive polypeptide library (protein)
# chain: MNKEQLVQETSIKAGVTKKQADAIISAICECIMDAVADGEKVTLVGFGSFEARHRKAREGRNPSTGQPMTIPATTVPAFSAGKAFKERVANESNENVA
# modifications: Arthrospira platensis NIES-39
# notes: as for B1
# B4: SEQID-00628: protein of the 168 nutritive polypeptide library (protein, listed as Saccharomyces cerevisiae)
# chain: MSDFQKEKVEEQEQQQQQIIKIRITLTSTKVKQLENVSSNIVKNAEQHNLVKKGPVRLPTKVLKISTRKTPNGEGSKTWETYEMRIHKRYIDLEAPVQIVKRITQITIEPGVDVEVVVASN
# modifications: source: /note="strain ATCC 204508 / S288c"
# notes: as for B1
# B5: SEQID-00609: protein of the 168 nutritive polypeptide library (protein, listed as Saccharomyces cerevisiae)
# chain: MSNPFDLLGNDVEDADVVVLPPKEIVKSNTSSKKADVPPPSADPSKARKNRPRPSGNEGAIRDKTAGRRNNRSKDVTDSATTKKSNTRRATDRHSRTGKTDTKKKVNQGWGDDKKELSAEKEAQADAAAEIAEDAAEAEDAGKPKTAQLSLQDYLNQQANNQFNKVPEAKKVELDAERIETAEKEAYVPATKVKNVKSKQLKTKEYLEFDATFVESNTRKNFGDRNNNSRNNFNNRRGGRGARKGNNTANATNSANTVQKNRNIDVSNLPSLA
# modifications: source: /note="strain ATCC 204508 / S288c"
# notes: as for B1
# B6: SEQID-00626: protein of the 168 nutritive polypeptide library (protein, listed as Lactobacillus acidophilus)
# chain: MVMTDPIADYLTRIRNANMAKHDSVEIPASNIKKSISEILKREGFIRDYEVADDNKQGVIKVFLKYGPNGERVISGLKRISKPGLRNYVSAEDLPKVLNGLGIAIVSTSAGVITDKEARQKNVGGEVIAYIW
# modifications: source: /note="strain 30SC"
# notes: as for B1
# B7: SEQID-00612: protein of the 168 nutritive polypeptide library (protein, listed as Oryza sativa)
# chain: MICLRAAFPLTSSPLRRLALKPSSSRAAAAAMSSAIAAPVEHIVLIKVRPEAASSGAAAAMVSSLQALSTAVPGLSYIHVGPVLRLRSPAAEALGPTHVLHSRYATKPDLAAYAAHPAHVAAVQGHVLPNALDSTAIDWVNAALVPSPVNPGSAVRLSLAKLKEGVEAHQLAEKLAAATAAAGEAKGAKVSFGENFSPARAKGYQFGMVAVFDSVEGLDAVDGDGKVEAAKAIVRPLLDDVLELEFVVGPAAAEAPAPANL
# modifications: source: /note="subsp. japonica"
# notes: as for B1
# B8: SEQID-00602: protein of the 168 nutritive polypeptide library (protein, listed as Lactobacillus acidophilus)
# chain: MKSYMKKIAAVVAVAGVALSTAACSNGGSNSTVASYKGGKITQQQYYDEMKKSQAGKSTLANMIINRALEQQYGKYVSSKKVDKQYNNYKKQYGSQFSAVLQQNGMTASSFKENLKTNLLSEQALKHIKKISKKQEQQAWKSYQPKVTVQHILVAKKSTAQSIIKQLKDGKSFKSLAKKYSLDTATKNKAGKLPAFDSTDNTLDSSFKTAAFKLKTGEVTSTPVKSQSGYHVIKMISHPAKGKFADHKKAIDDEIYASMAQDQATMKDVISTVLKRADVSIKDSDLKDVLASYVSTTSATK
# modifications: source: /note="strain 30SC"
# notes: as for B1
# B9: SEQID-00625: protein of the 168 nutritive polypeptide library (protein)
# chain: MPFKRYVEIGRVAQINYGKEYGRLVVIVDVIDQNRALVDAPDMVRSQVNFKRLSLTDIKIDIKRVPKKKDLVKAMEDADVKTKWEKSSWGRKLIVRKRRASLNDFDRFKIMLAKIKKAAVVRQELAKLRKSA
# modifications: Glycine max
# notes: as for B1
# B10: SEQID-00624: protein of the 168 nutritive polypeptide library (protein)
# chain: MSEKTDQILEQLKSLSLLEASELVKQIEEAFGVDASASAGGGMMMMAAPGMAAPGAEAAAEEEKTEFDVILTEFPADKKIAVLKVVRSITGLGLKEAKDLVESAPKAIKEATTKEDAESIKKQLEESGAKVEVK
# modifications: Arthrospira platensis NIES-39
# notes: as for B1
# B11: SEQID-00618: protein of the 168 nutritive polypeptide library (protein)
# chain: MDAGGKIKKGAGGRKGGGPKKKPVSRSVKAGLQFPVGRIGRYLKKGRYAQRVGTGAPVYLAAVLEYLAAEVLELAGNAARDNKKNRIIPRHVLLAVRNDEELGKLLAGVTIAHGGVLPNINPVLLPKKTERASKEPKSPSKATKSPKKA
# modifications: Glycine max
# notes: as for B1
# B12: SEQID-00620: protein of the 168 nutritive polypeptide library (protein, listed as Saccharomyces cerevisiae)
# chain: MSDVEEVVEVQEETVVEQTAEVTIEDALKVVLRTALVHDGLARGLRESTKALTRGEALLVVLVSSVTEANIIKLVEGLANDPENKVPLIKVADAKQLGEWAGLGKIDREGNARKVVGASVVVVKNWGAETDELSMIMEHFSQQ
# modifications: source: /note="strain ATCC 204508 / S288c"
# notes: as for B1
# B13: SEQID-00607: protein of the 168 nutritive polypeptide library (protein)
# chain: MALQDDWQQSHLERRQVLAESQKQIWATIGLWQRERYSQAITQKQDRQAFVSQLKQENQAFLADAHNNHRQQAEQLAEDLKEFVRSLQKETATFLEESAQSRAEKAEELAQELRDFRAELRDTVAQWQQQWQQQDQERAAGRRKLAQQVQGDLQEFNIIRTIMAEKLLQQTQEAKAERLAGIQSMFEDMGKFRMQLQEYRREREKSVWGGERVKSTPATPQKAKASQTLVPQTKPKAVKSAPSTTTAAQSTTPTAVVVAEPTKPAVPPNQPKPTTVVPHPPNPG
# modifications: Arthrospira platensis C1
# notes: as for B1
# B14: SEQID-00632: protein of the 168 nutritive polypeptide library (protein, listed as Saccharomyces cerevisiae)
# chain: MSTVTKYFYKGENTDLIVFAASEELVDEYLKNPSIGKLSEVVELFEVFTPQDGRGAEGELGAASKAQVENEFGKGKKIEEVIDLILRNGKPNSTTSSLKTKGGNAGTKAYN
# modifications: source: /note="strain ATCC 204508 / S288c"
# notes: as for B1
# B15: SEQID-00623: protein of the 168 nutritive polypeptide library (protein, listed as Solanum lycopersicum)
# chain: MKPAEKKPAEKTPVAEKAPAEKKPKAGKKLPKDAAAGDKKKKRSKKAVETYKIYIFKVLKQVHPDIGISSKAMGIMNSFINDIFEKLAQEASRLARYNKKPTITSREIQTAVRLVLPGELAKHAVSEGTKAVTKFTSS
# B16: SEQID-00619: protein of the 168 nutritive polypeptide library (protein, listed as Linum usitatissimum)
# chain: MAPKAAEKKPAEKKPAEEKKAEKAPAEKKPRAEKKLPKEGGAAAADKKKKRNKKNVETYKIYIFKVLKQVHPDIGISSKAMGIMNSFINDIFEKLAAESSRLARYNKKPTITSREIQTAVRLVLPGELAKHAVSEGTKAVTKFTSS
# Experiment: SGF digest of 168 nutritive polypeptide library, intact protein by LC-MS/MS
# Type: in vitro ADME
# Conditions: 168 nutritive polypeptide library SGF digest, LC-MS/MS spectral counts
# Method: The in vitro intact half-life of multiple polypeptides in a complex mixture was determined using the simulated gastric in vitro digestion described above. Briefly, the 168 nutritive polypeptide library was generated as described herein by cloning, transforming, and expressing a gene library encoding 168 proteins as a single mixture. The recombinantly expressed proteins were purified from host cell proteins by IMAC purification as described herein.
# The 168 Protein Library was treated with SGF as described above and the t=0 and t=10 min samples were analyzed for intact protein by LC-MS/MS. To begin, 10 μg of sample was loaded onto a 10% SDS-PAGE gel (Invitrogen) and run approximately 5 cm into the gel. The gel was excised into ten fractions from 100 kD to the dye front and the gel slices were processed by washing with 25 mM ammonium bicarbonate, followed by acetonitrile. Gel fractions were then reduced with 10 mM dithiothreitol at 60° C., followed by alkylation with 50 mM iodoacetamide at room temperature. Finally, the samples were digested with trypsin (Promega) at 37° C. for 4 h and the digestions were quenched with the addition of formic acid. The samples were then analyzed by nano LC/MS/MS using an EasynLC 1000 HPLC system interfaced to a ThermoFisher Q Exactive. Peptides were loaded on a trapping column and eluted over a 75 μm analytical column at 350 nL/min; both columns were packed with PepMap C18 3 μm resin (ThemoFisher). A 1 hour gradient was employed. The mass spectrometer was operated in data-dependent mode, with MS and MS/MS performed in the Orbitrap at 70,000 FWHM resolution and 17,500 FWHM resolution, respectively. The fifteen most abundant ions were selected for MS/MS. Data were searched against an appropriate database using Mascot to identify peptides. Mascot DAT files were parsed into the Scaffold software for validation, filtering and to create a nonredundant list per sample. Data were filtered at 1% protein and peptide false discovery rate (FDR) and requiring at least two unique peptides per protein. A full list of detected proteins and their spectral counts (SpC) was generated and reported as a function of each collected gel fraction. SpC are a count of the number of spectra identified for a given protein and are used as a measure of relative protein abundance (Liu, H. et al., Analytical Chemistry 2004, 76: 4193-4201). To calculate the percentage of intact protein remaining at the 10 min time point of the SGF digest the number of SpC representative of intact peptide in the t=10 min sample were divided by the number of SpC representative of intact peptide in the t=0 min sample. The number of SpC representative of intact peptide was defined as the sum of the SpC in the fraction with the highest number of SpC assigned to that protein in the t=0 min sample and the two flanking fractions.
row,Molecule,% Intact Protein at 10 min [%]
1,B1,92.1
2,B2,0
3,B3,43.9
4,B4,0
5,B5,0
6,B6,0
7,B7,0
8,B8,0
9,B9,0
10,B10,0
11,B11,0
12,B12,0
13,B13,0
14,B14,1.2
15,B15,63.6
16,B16,68.5
